Paper PMC6874815, “Tunnel engineering to accelerate product release for better biomass-degrading abilities in lignocellulolytic enzymes” (Biotechnology for Biofuels, 2019)
Residue numbers refer to the chain shown, from its start. Names and notes keep the numbering of the source.

Substrate: O=[N+]([O-])c1ccc(O[C@@H]2OC[C@@H](O[C@@H]3OC[C@@H](O)[C@H](O)[C@H]3O)[C@H](O)[C@H]2O)cc1
Assay: Eadie-Hofstee plot of hydrolysis
Format: biochemical, Halalkalibacterium halodurans
Settings: pH and temperature of kinetic assay not stated (activity assay: glycine-NaOH pH 9.0, 70 °C)
Source text: Eadie-Hofstee plot of hydrolysis on S7-xyl (Xyn10A in Table 1)

[1] = mutant 254RL1, text b16 says Km slightly increased by 10%, table shows a decrease

B1: S7-xyl (Xyn10A in Table 1) (Halalkalibacterium halodurans C-125) (protein)
chain: AQGGPPKSGVFGENEKRNDQPFAWQVASLSERYQEQFDIGAAVEPYQLEGRQAQILKHHYNSLVAENAMKPESLQPREGEWNWEGADKIVEFARKHNMELRFHTLVWHSQVPEWFFIDEDGNRMVDETDPDKREANKQLLLERMENHIKTVVERYKDDVTSWDVVNEVIDDGGGLRESEWYQITGTDYIKVAFETARKYGGEEAKLYINDYNTEVPSKRDDLYNLVKDLLEQGVPIDGVGHQSHIQIGWPSIEDTRASFEKFTSLGLDNQVTELDMSLYGWPPTGAYTSYDDIPAELLQAQADRYDQLFELYEELAADISSVTFWGIADNHTWLDGRAREYNNGVGIDAPFVFDHNYRVKPAYWRIID
notes: N-terminal His-tag, pET-28a, E. coli Rosetta (DE3), codon-optimized synthetic gene; GH10
Question: With B1 as the protein, how does the Km (listed as labelled Xyn10A) read?
Answer: The Km was 4.42 ± 0.12 mM.

Question: And the kcat (listed as labelled Xyn10A)?
Answer: The kcat was 4.57 ± 0.31 s⁻¹.

Question: And the kcat/Km (listed as labelled Xyn10A)?
Answer: The kcat/Km was 1030 M⁻¹ s⁻¹.

B2: S7-xyl (Xyn10A in Table 1) (Halalkalibacterium halodurans C-125; Q274S/V243N/W277R) (protein)
chain: B1 chain with V215N, Q246S, W249R
notes: as for B1
Question: With B2 as the protein, how does the Km [1] read?
Answer: The Km was 4.04 ± 0.27 mM.

Question: What about the kcat [1] of the same protein?
Answer: The kcat was 14.4 ± 0.21 s⁻¹.

Question: What about the kcat/Km [1] of the same protein?
Answer: The kcat/Km was 3540 M⁻¹ s⁻¹.
